Data set [1] concerns the molecule itself. Nature of the data set: native gel or EMSA; DNA binding assay with half site dsDNA; partially purified His-tagged Adr1-165 from bacteria (Supplementary Figure S1d, lanes 12-14).
The target in data set [2] is T1, Adr1-DBD (untagged) (Saccharomyces cerevisiae, UniProt P07248 75-178).
T1 sequence: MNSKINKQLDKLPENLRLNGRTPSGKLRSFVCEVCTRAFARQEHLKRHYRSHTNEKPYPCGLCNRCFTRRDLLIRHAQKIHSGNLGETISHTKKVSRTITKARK
Nature of the data set: EMSA; 5 mM CHAPS, Zn acetate; two smeared bands; 40 mM Na phosphate pH 7.5, 40 mM NaCl, 10% glycerol, 18 uM Zn acetate (+/- 5 mM CHAPS, DTT, spermine), 30 min 4 C; HPLC-purified: 20 mM phosphate pH 7.0, 40 mM. The conditions noted are these: protein: recombinant; tags: none; label: 33P (5' kinase label); self-complementary duplex, 5' overhang 4 nt at both ends.

Data set [3] concerns the target T2, miniAdr1-BL (untagged) (Saccharomyces cerevisiae, UniProt P07248 75-471, del1-74;del179-418;del472-1323).
T2 sequence: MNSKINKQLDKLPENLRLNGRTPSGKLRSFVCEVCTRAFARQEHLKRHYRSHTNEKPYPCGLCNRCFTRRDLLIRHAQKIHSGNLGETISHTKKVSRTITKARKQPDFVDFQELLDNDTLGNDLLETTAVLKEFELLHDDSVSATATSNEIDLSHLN
The experiment in a line: EMSA; 5 mM CHAPS, Zn acetate; protein 3.16e-8 to 1e-6 M, DNA 1e-8 M; 40 mM Na phosphate pH 7.5, 40 mM NaCl, 10% glycerol, 18 uM Zn acetate (+/- 5 mM CHAPS, DTT, spermine), 30 min 4 C; HPLC-purified: 20 mM phosphate pH 7.0, 40 mM. The conditions noted are these: protein: recombinant; tags: none; chain copies: 2; label: 33P (5' kinase label); self-complementary duplex, 5' overhang 4 nt at both ends.

Data set [4] concerns the molecule itself. The experiment in a line: native gel or EMSA; N-PAGE/EMSA with half site dsDNA (one binding site), no CHAPS; 20, 40 and 80 pmol protein; stoichiometric mixture of both proteins (40 pmol) in lane 7.
Data set [5] concerns the molecule itself. The experiment in a line: SEC; miniAdr1-BL alone, freshly purified and concentrated, no DNA; Superdex G75 on HPLC, 50 mM Na/K phosphate pH 6.9, 150 mM NaCl, 4 mM TCEP, 5 mM CHAPS, 5% glycerol, 3.5 mM spermine, 0.018 mM Zn acetate; 0.4 mL/min; masses from a calibration curve.
The next data set has as its target T3, His-Adr1-165 (Saccharomyces cerevisiae, UniProt P07248 1-165).
T3 sequence: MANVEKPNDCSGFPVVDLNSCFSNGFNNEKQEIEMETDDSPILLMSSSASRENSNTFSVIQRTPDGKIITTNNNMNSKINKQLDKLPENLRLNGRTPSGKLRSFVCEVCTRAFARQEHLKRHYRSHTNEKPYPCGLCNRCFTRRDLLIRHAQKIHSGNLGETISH
The experiment in a line: EMSA; CM + heparin purified; monomer and dimer; 40 mM Na phosphate pH 7.5, 40 mM NaCl, 10% glycerol, 18 uM Zn acetate (+/- 5 mM CHAPS, DTT, spermine), 30 min 4 C; HPLC-purified: 20 mM phosphate pH 7.0, 40 mM. The conditions noted are these: protein: recombinant; tags: His-tag; label: 33P or none (ethidium bromide); 5' overhang 1 nt at both ends.

For data set [6], the target named is T1, Adr1-DBD (untagged). The experiment in a line: EMSA; no CHAPS, Zn acetate; mostly monomer; 40 mM Na phosphate pH 7.5, 40 mM NaCl, 10% glycerol, 18 uM Zn acetate (+/- 5 mM CHAPS, DTT, spermine), 30 min 4 C; HPLC-purified: 20 mM phosphate pH 7.0, 40 mM. The conditions noted are these: protein: recombinant; tags: none; label: 33P or none (ethidium bromide); 5' overhang 1 nt at both ends.

Data set [7] has as its target T2, miniAdr1-BL (untagged). The experiment in a line: EMSA; no CHAPS, Zn acetate; mostly dimer; 40 mM Na phosphate pH 7.5, 40 mM NaCl, 10% glycerol, 18 uM Zn acetate (+/- 5 mM CHAPS, DTT, spermine), 30 min 4 C; HPLC-purified: 20 mM phosphate pH 7.0, 40 mM. To be noted: protein: recombinant; tags: none; chain copies: 2; label: 33P or none (ethidium bromide); 5' overhang 1 nt at both ends.

Data set [8] has as its target T2, miniAdr1-BL (untagged). Nature of the data set: EMSA; 5 mM CHAPS; hairpin not competent for binding; 40 mM Na phosphate pH 7.5, 40 mM NaCl, 10% glycerol, 18 uM Zn acetate (+/- 5 mM CHAPS, DTT, spermine), 30 min 4 C; HPLC-purified: 20 mM phosphate pH 7.0, 40 mM. The conditions noted are these: protein: recombinant; tags: none; chain copies: 2; label: 33P; hairpin of a single strand, 5' overhang 4 nt.

Values joined by “and” are separate entries in the source; they are usually repeats but may differ in a detail not shown here. Equal values may be shown once.

B1: His-tagged Adr1-165 (residues 1-165) (domain or fragment, Saccharomyces cerevisiae, UniProt P07248 1-165, looked up)
chain: MANVEKPNDCSGFPVVDLNSCFSNGFNNEKQEIEMETDDSPILLMSSSASRENSNTFSVIQRTPDGKIITTNNNMNSKINKQLDKLPENLRLNGRTPSGKLRSFVCEVCTRAFARQEHLKRHYRSHTNEKPYPCGLCNRCFTRRDLLIRHAQKIHSGNLGETISH
notes: Alcohol dehydrogenase repressor 1 (Adr1p), Saccharomyces cerevisiae, UniProt P07248; residues 1-165, comprising only TAD I; also called HisAdr1-165; His-Adr1-165; source: E. coli BL21(DE3), pET28b, partially purified
B1: in data set [1], the “stoichiometry N” value was 2.

B2: Palindromic UAS1 (dsDNA)
DNA 1: CCGGCCTCTCCAACTTATAAGTTGGAGAGG
DNA 2: CCGGCCTCTCCAACTTATAAGTTGGAGAGG
B2: the binding result in the data set with Adr1-DBD (untagged) [2] and in the data set with miniAdr1-BL (untagged) [3] was “binds” in each case.

B3: miniAdr1-BL (Adr1_Δ179-418), untagged (domain or fragment, Saccharomyces cerevisiae, UniProt P07248 75-471, looked up)
chain: MNSKINKQLDKLPENLRLNGRTPSGKLRSFVCEVCTRAFARQEHLKRHYRSHTNEKPYPCGLCNRCFTRRDLLIRHAQKIHSGNLGETISHTKKVSRTITKARKQPDFVDFQELLDNDTLGNDLLETTAVLKEFELLHDDSVSATATSNEIDLSHLN
notes: Alcohol dehydrogenase repressor 1 (Adr1p), Saccharomyces cerevisiae, UniProt P07248; residues 75-178 (PAR-TAD I with the basic linker 158-178) directly linked to residues 419-471 (core of TAD III); TAD I and TAD III fragments were ligated through inserted BamHI sites; Printed mass 18 kDa; also called construct (4); basic linker construct; source: Komagataella pastoris X-33, cytoplasm, purified …
On to B3, for which the “stoichiometry N” value in data set [4] is 2; in data set [5], ~2 and ~3.

B4: Adr1-DBD (residues 75-178), untagged (domain or fragment, Saccharomyces cerevisiae, UniProt P07248 75-178, looked up)
chain: MNSKINKQLDKLPENLRLNGRTPSGKLRSFVCEVCTRAFARQEHLKRHYRSHTNEKPYPCGLCNRCFTRRDLLIRHAQKIHSGNLGETISHTKKVSRTITKARK
notes: Alcohol dehydrogenase repressor 1 (Adr1p), Saccharomyces cerevisiae, UniProt P07248; Printed mass 12.4 kDa; also called construct (5); source: Komagataella pastoris X-33, purified (CM sepharose, SEC)
Turning to B4, the “stoichiometry N” value in data set [4] came out at 2.

B5: Half site UAS1 (dsDNA)
DNA 1: TCCGGGCATCTCCAACTTA
DNA 2: CTAAGTTGGAGATGCCCGG
Take B5: the binding result with His-Adr1-165, with Adr1-DBD (untagged) [6] and with miniAdr1-BL (untagged) [7] was “binds” in each case. Turning to CCGGCCTCTCCAACTTATAAGTTGGAGAGG (structured_DNA) [Palindromic UAS1 hairpin], in the data set with miniAdr1-BL (untagged) [8], the binding result is recorded as “no binding”.

These data come from article PMC6769490, “Protein Engineering of Multi-Modular Transcription Factor Alcohol Dehydrogenase Repressor 1 (Adr1p), a Tool for Dissecting In Vitro Transcription Activation” (Biomolecules, 2019).
